Experiment in all cases: purified protein
Data set [1] concerns CSC[C@H]1O[C@@H](n2cnc3c(N)ncnc32)[C@H](O)[C@@H]1O. The settings on record: 40 mM K-phosphate pH 7.8, 0.1 M MgCl2, 30 °C.
For data set [2], the system named is C[C@H]1O[C@@H](n2cnc3c(N)ncnc32)[C@H](O)[C@@H]1O. The following applies: 40 mM K-phosphate pH 7.8, 0.1 M MgCl2, 30 °C.
Substrate in data set [3]: C[C@@H](O)[C@@H](O)C(=O)COP(=O)(O)O
The format is biochemical, Bacillus subtilis. The settings on record: 35 °C probably (used for weak substrates); 35.0 °C.

Substrate in data set [4]: CSC[C@@H](O)[C@@H](O)C(=O)COP(=O)(O)O
The format is biochemical, Bacillus subtilis. The following applies: 30 °C (also performed at 35 °C).

Substrate in data set [5]: C[C@H]1O[C@H](OP(=O)(O)O)[C@H](O)[C@@H]1O
It counts as biochemical, Escherichia coli. The following applies: 50 mM K-phosphate pH 7.8, 5 mM MgCl2, 0.3 mM CoCl2, 30 °C.

Substrate in data set [6]: CSC[C@H]1O[C@H](OP(=O)(O)O)[C@H](O)[C@@H]1O
It counts as biochemical, Escherichia coli. The settings on record: 50 mM K-phosphate pH 7.8, 5 mM MgCl2, 0.3 mM CoCl2, 30 °C.

Substrate in data set [7]: CSC[C@H]1O[C@H](OP(=O)(O)O)[C@H](O)[C@@H]1O
The format is biochemical, Bacillus subtilis. The following applies: 50 mM K-phosphate pH 7.8, 5 mM MgCl2, 0.3 mM CoCl2, 30 °C.

Substrate in data set [8]: O=P(O)(O)O[C@H]1O[C@H](CO)[C@@H](O)[C@H]1O
It counts as biochemical, Rhodospirillum rubrum. The following applies: 50 mM K-phosphate pH 7.8, 5 mM MgCl2, 0.3 mM CoCl2, 30 °C.

Take EcMtnN (Escherichia coli K-12): in data set [1], the Michaelis-Menten constant (Km) (in general, the substrate concentration at which the rate is half of its maximum) was 0.83 µM; the kcat (commonly the number of substrate molecules converted per active site and unit of time at saturation) was determined as 150 s⁻¹; the kcat/Km (commonly the turnover number divided by the Michaelis constant) is 1.8e+08 M⁻¹ s⁻¹. Besides, in data set [2], the Km is 4.7 µM, the kcat is 57 s⁻¹ and the kcat/Km was 1.2e+07 M⁻¹ s⁻¹.

B1: Bs MtnB (Bacillus subtilis subsp. subtilis str. 168) (protein)
chain: MAAKQERWRELAEVKRELAERDWFPATSGNLSIKVTDEPLTFLVTASGKDKRKETVEDFLLVDQNGEPAESGHSLKPSAETLLHTHLYNKTNAGCCLHVHTVNNNVISELYGDQKKITFKGQEIIKALGLWEENAEVTVPIIENPAHIPTLAALFAEEISEDSGAVLIRNHGITAWGKTAFEAKRVLEAYEFLFSYHLKLKTLEHQLVK
As for B1, in data set [3], the Km is 315 µM, the catalytic constant (kcat) was 0.053 s⁻¹ and the kcat/Km came out at 200 M⁻¹ s⁻¹. Besides, in data set [4], the Km turned out to be 24 µM, the kcat worked out at 16 s⁻¹ and the kcat/Km amounted to 670000 M⁻¹ s⁻¹.

B2: EcMtnA (Escherichia coli S88) (protein)
chain: MNIKGKHYRTVWVSGDGKAVEIIDQTKLPFKFEVVALTSAEMAATAIQDMWVRGAPLIGVVAAYGIALGMNHDASDMGLQRYYDLLIKTRPTAINLKWALDRMIDTLKDLCVSERKDVAWALAAEIAEEDVALCEQIGLHGAEVIREIAQKKPAGSVVNILTHCNAGWLATVDWGTALSPIYKAHENGIPVHVWVDETRPRNQGGLTAFELGSHGIPHTLIADNAGGHLMQHGDVDLCIVGTDRTTARGDVCNKIGTYLKALAAHDNHVPFYVALPSPTIDWTIEDGKSIPIEQRDGKEQSHVYGINPQGELSWVNTAPEGTRCGNYAFDVTPARYITGFITERGVCAASKSALADMFADLKSKALQGEQH
For the molecule B2, in data set [5], the Km came out at 222 µM, the turnover number (kcat) was determined as 2.02 s⁻¹ and the kcat/Km came to 9100 M⁻¹ s⁻¹. For the same molecule, in data set [6], the Michaelis constant (Km) is 50 µM, the kcat stood at 0.49 s⁻¹ and the kcat/Km came out at 9800 M⁻¹ s⁻¹.

B3: BsMtnA (Bacillus subtilis subsp. subtilis str. 168) (protein)
chain: MTHSFAVPRSVEWKETAITILNQQKLPDETEYLELTTKEDVFDAIVTLKVRGAPAIGITAAFGLALAAKDIETDNVTEFRRRLEDIKQYLNSSRPTAINLSWALERLSHSVENAISVNEAKTNLVHEAIQIQVEDEETCRLIGQNALQLFKKGDRIMTICNAGSIATSRYGTALAPFYLAKQKDLGLHIYACETRPVLQGSRLTAWELMQGGIDVTLITDSMAAHTMKEKQISAVIVGADRIAKNGDTANKIGTYGLAILANAFDIPFFVAAPLSTFDTKVKCGADIPIEERDPEEVRQISGVRTAPSNVPVFNPAFDITPHDLISGIITEKGIMTGNYEEEIEQLFKGEKVH
For the molecule B3, in data set [7], the Michaelis constant (Km) turned out to be 114 µM, the kcat was 3.9 s⁻¹ and the kcat/Km amounted to 35000 M⁻¹ s⁻¹.

B4: RrMtnA (Rhodospirillum rubrum ATCC 11170) (protein)
chain: MNVKGTPTRTIWPAREGGAVWIIDQTRLPHEFVTQRLNDLGAVAHAIRAMLVRGAPLIGATAAYGVALGMAEDPSDEGLTRACQTLLATRPTAVNLRWAIEAMAESLAAVPPDQRAQAAWAKAGAICDEDVALNEAIGDHGLGIIKDLARTKGVEKGGEGPINILTHCNAGWLATVDWGTALAPLYKAHDAGLPIHVWVDETRPRNQGASLTAWELNSHGVPHTVIADNTGGHLMQHGLVDMVIVGTDRTTATGDVCNKIGTYLKALAAFDNAVPFYVALPGPTIDWTVNDGLREIPIEQRDAAEVTRVWGRTAAGALEWVTITPTGSPAANYAFDVTPARLITGLITERGVCAASAAGLAGLYPERAPAPVPAGSAAGKGAAATADGAL
For the molecule B4, in data set [8], the catalytic constant (kcat) came to 0.03 s⁻¹ and the catalytic efficiency (kcat/Km) is below 20 M⁻¹ s⁻¹.
